Experimental findings from PMC12809912 are described below.

Values joined by “and” are separate entries in the source; they are usually repeats but may differ in a detail not shown here. Equal entries are not always repeated.

What is called Kd is the constant that tells how readily two partners part at equilibrium.

The target of test [1] is T1, synthetic DEFA5 peptide residues 54-66 (…) (human).
T1 sequence (peptide): LRTSGSQARATCY
In words: SPR; synthetic peptides 54-66 (for 1A8) and 52-66 (for 4F5); who was immobilised is not told (Fig. S5).

The target of test [2] is recombinant His-tagged human alpha-defensin 5 (DEFA5) construct, residues 23-94 behind a soluble fusion partner (human). In words: ELISA; indirect ELISA: recombinant DEFA5 coated at 100 ng/mL in carbonate-bicarbonate buffer pH 9.6, antibodies 250-3.9 nM 1 h at room temperature; one-site specific binding fit; two experiments. (In general: In an ELISA, binding on a coated surface is turned into a signal by an enzyme label.)

Test [3] deals with T2, synthetic DEFA5 peptide residues 52-66 (…) (human).
T2 sequence (peptide): SALRTSGSQARATCY
Nature of the test: SPR; synthetic peptides 54-66 (for 1A8) and 52-66 (for 4F5); who was immobilised is not told (Fig. S5). For orientation: In SPR one partner is held on a chip, and binding of the other changes the refractive index at the surface.

The target in test [4] is mouse monoclonal antibody clone 4F5 (anti-DEFA5). Nature of the test: indirect ELISA. Particulars: chain shown with the change;; parent: est. 2.2; read off a plot.
Test [5] addresses mouse monoclonal antibody clone 1A8 (anti-DEFA5). Nature of the test: indirect ELISA. Particulars: chain shown with the change;; parent: est. 2.6; read off a plot.

Sequence of recombinant His-tagged human alpha-defensin 5 (DEFA5) construct, residues 23-94 behind a soluble fusion partner (human) (Q01523 23-94): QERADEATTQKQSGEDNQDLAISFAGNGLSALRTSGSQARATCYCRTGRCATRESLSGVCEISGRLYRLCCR

B1: mouse monoclonal antibody clone 1A8 (anti-DEFA5) (antibody, V domains shown)
VH: QVQLQQSGAELVRPGASVKMSCKALGYTFFDYEMHWMKQTPVYGLEWIGAIHPGSGDTAYNQKFKGKATLTADKSSNTAYMELSSLTSEDSAVYYCTREGTVVAPFDYWGQGTTLTVSS
VL: DVLMTQTPLSLPVSLGDQASISCRSSQSIVHSNGNTYLEWYLQKPGQSPKLLINKVSNRFSGVPDRFSGSGSGTDFTLKISRVEAEDLGVYYCFQGSYVPYTFGGGTKLEIK
As to B1, the Kd is 303 µM in test [1]; 0.0421 µM and 0.0455 µM in test [2].

B2: mouse monoclonal antibody clone 4F5 (anti-DEFA5) (antibody, V domains shown)
VH: QVQLQQSGAELVRPGASVKMSCKALGYTFFDYEMHWMKQTPVYGLEWIGAIHPGSGDTAYNQKFKGKATLTADKSSNTAYMELSSLTSEDSAVYYCTREGTVVAPFDYWGQGTTLTVSS
VL: DVLMTQTPLSLPVSLGDQASISCRSSQSIVHSNGNTYLEWYLQKPGQSPKLLINKVSNRFSGVPDRFSGSGSGTDFTLKISRVEAEDLGVYYCFQGSYVPYTFGGGTKLEIK
With B2, the Kd was 4800 µM in test [3]; 0.0534 µM and 0.0566 µM in test [2].

B3: peptide No. 57 of the overlapping library, DEFA5 amino acids 61-75 (…) A1del (peptide)
chain: RATCYCRTGRCATR
Take B3: the response is 2.3 OD450nm in test [4] and 2.6 OD450nm in test [5].
